Assay results reported in paper PMC5472591, “Mechanical stability of talin rod controls cell migration and substrate sensing” (Scientific Reports, 2017).

Target: the molecule itself
Test: SEC-MALS; SEC on Superdex 200 10/300 GL with inline right angle / static light scattering detector; 200 ug protein injected; 50 mM NaH3PO4, 150 mM NaCl pH 7.2; 0.5 ml/min; 20 °C; detector calibrated with the monomeric peak of BSA

B1: talin-1 rod R3 subdomain fragment (amino acids 795-911) 4S mutant, His6-tagged (domain or fragment, mouse)
chain: SSSGPSASGTGAGRYDQATDTSLTVTENSFSSMGDAGEMVRQARILAQATSDLVNAIKADAEGESDLENSRKLLSAAKILADATAKMVEAAKGAAAHPDSEEQQQRSREAAEGSRMATNAAAQNAIKK
notes: 11 residue linker between the N-terminal His6-tag and the talin fragment; talin-1, mouse, R3 subdomain, residues 795-911, with all four destabilizing point mutations; not shown: His6, N-terminal, kept
With B1 the “stoichiometry N” value was 2.
